Data set [1] has as its target T1, AsCas12f1 (Acidibacillus sulfuroxidans, UniProt A0A2U3D0N8 1-422).
T1 sequence: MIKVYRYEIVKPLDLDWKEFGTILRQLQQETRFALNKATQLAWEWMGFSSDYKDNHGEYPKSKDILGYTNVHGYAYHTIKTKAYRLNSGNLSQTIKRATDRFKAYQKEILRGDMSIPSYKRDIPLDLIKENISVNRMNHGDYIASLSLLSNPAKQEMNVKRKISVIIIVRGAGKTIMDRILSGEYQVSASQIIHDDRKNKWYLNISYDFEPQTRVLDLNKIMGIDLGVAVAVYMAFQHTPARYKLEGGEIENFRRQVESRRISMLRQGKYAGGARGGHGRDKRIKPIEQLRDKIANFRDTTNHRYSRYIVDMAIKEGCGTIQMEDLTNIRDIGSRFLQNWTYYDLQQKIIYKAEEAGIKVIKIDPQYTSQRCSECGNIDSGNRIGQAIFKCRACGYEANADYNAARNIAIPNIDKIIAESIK
Description: smFRET; crRNA-tracrRNA; binding then cleavage, E ~0.5; Assay buffers not in the material; duplexes annealed in 20 mM Tris-HCl pH 8.0, 50 mM NaCl; smFRET with 1-10 mM Mg2+. Conditions: protein: recombinant; tags: N-terminal His6-SUMO, removed by HRV3C; chain copies: 2; label: iCy3dT (+34) and 3' biotin on NTS; 3' Cy5 on crRNA; strands: TS/NTS/crRNA/tracrRNA; DNA blunt; crRNA 3' 20 nt pairs with TS.

Data set [2] has as its target T1, AsCas12f1. Description: smFRET; partially matched guide/target (16-20mm); low E 0.2-0.4, partial hybridization; Assay buffers not in the material; duplexes annealed in 20 mM Tris-HCl pH 8.0, 50 mM NaCl; smFRET with 1-10 mM Mg2+. Particulars: protein: recombinant; tags: N-terminal His6-SUMO, removed by HRV3C; chain copies: 2; label: iCy3dT and 3' biotin on NTS; 3' Cy5 on crRNA; strands: TS/NTS/crRNA/tracrRNA; DNA blunt; guide mismatched at positions 16-20.

B1: smFRET target DNA with crRNA/tracrRNA (mixed)
DNA 1: ACGCACCAGAAACGAAGGCTACGTCCAGGAGCGCACCATCTTCTTCAAGGAATACAAACAAGCTAAGCACAACGTCGTCT
DNA 2: AGACGACGTTGTGCTTAGCTTGTTTGTATTCCTTGAAGAAGATGGTGCGCTCCTGGACGTAGCCTTCGTTTCTGGTGCGT
RNA 1: GUUUGCGAGCUAGCUUGUGGAGUGUGAACUAUUCCUUGAAGAAGAUGGU
RNA 2: GGAUUCGUCGGUUCAGCGACGAUAAGCCGAGAAGUGCCAAUAAAACUGUUAAGUGGUUUGGUAACGCUCGGUAAGGUAGCCAAAAGGCUGAAACUCCGUGCACAAAGACCGCACGGACGCUUCACAUAUAGCUCAUAAAC
As to B1, in the data set with AsCas12f1 [1], the binding result is “binds”.

B2: Protospacer 16-20mm DNA with crRNA/tracrRNA (mixed)
DNA 1: ACGCACCAGAAACGAAGGCTACGTCCAGGAGCGCGTACGCTTCTTCAAGGAATACAAACAAGCTAAGCACAACGTCGTCT
DNA 2: AGACGACGTTGTGCTTAGCTTGTTTGTATTCCTTGAAGAAGCGTACGCGCTCCTGGACGTAGCCTTCGTTTCTGGTGCGT
RNA 1: GUUUGCGAGCUAGCUUGUGGAGUGUGAACUAUUCCUUGAAGAAGAUGGU
RNA 2: GGAUUCGUCGGUUCAGCGACGAUAAGCCGAGAAGUGCCAAUAAAACUGUUAAGUGGUUUGGUAACGCUCGGUAAGGUAGCCAAAAGGCUGAAACUCCGUGCACAAAGACCGCACGGACGCUUCACAUAUAGCUCAUAAAC
For the molecule B2, in the data set with AsCas12f1 [2], the binding result was “binds”.

(Values after paper PMC11662939, “CRISPR-AsCas12f1 couples out-of-protospacer DNA unwinding with exonuclease activity in the sequential target cleavage”.)
